Publication PMC5794259, “Novel ATP-cone-driven allosteric regulation of ribonucleotide reductase via the radical-generating subunit” (eLife, 2018)

B1: Leeuwenhoekiella blandensis NrdB, thrombin-cleaved (used for crystallization) (enzyme)
chain: GSHMSSQEIKKIIKRDYSTAPFVLEKITNAIANAMAALGHGSEQDAKLISMQVYESLLNNKEQESEYIPTVEQVQDMVEDKLMSSEFHDVAKAYIIYRNKRALERKTNIFEKRINLKPYEYPELNEYVAAIRHSYWIHTEFNFTSDIQDFKTGLSEVERSAIKNTMLAISQIEVAVKTFWGDVHHRLPKPEIAAVGATFAESEVRHHDAYSHLLEILGLNEEFKELKKKPVIMKRVHYLETSLKHAKSDDDREYTESILLFALFIEHVSLFSQFLIIMAFNKHKNMLKGISNAVEATSKEEQIHGDFGVDIINIIKKENPEWFDEEHNNLIKEMCLNSFEAESKVVDWIFEKGELDFLPKAVINEFLKNRFNKSLEAIGLEKLFDIDEALLQETEWFDDEIIGTKHGDFFVKRSINYSKRTQSITSDDLF
notes: three additional residues (GlySerHis) left at the N-terminus from the thrombin cleavage site; NrdBi of Leeuwenhoekiella blandensis sp. nov. strain MED217; GenBank EAQ51288; Crystallized with 5 mM dATP, 20 mM MgCl2; two dATP per ATP-cone; metal site occupied by Ca2+ from the crystallization medium; also called thrombin-cleaved NrdB; source: E. coli BL21(DE3), purified (HisTrap, gel filtration), …
B2: Leeuwenhoekiella blandensis NrdAi (NrdA, catalytic subunit of class I ribonucleotide reductase) (enzyme, UniProt A3XHF8 1-600, looked up)
chain: MRENTTKLENSTETNVQHTKDNDLLKARRDALQDATEKNTDEPSFDWLTEHSRSFLAAGYLSEGVSAEERIREIADRAEEILRMPGFSDKFYKYMGEGYFSLASPVWSNFGKKRGLPISCFGSHIDDDMGNILYTQSEVGMMSKLGGGTSGYFGKIRHRGAAVKNNGYASGAVHIMQLFDKMVDVVSQGSVRRGRFSPYLPISHPDIKEFLEIGTEGNSIQQLTHGVTVDSTWMQEMIDGDTDKREVWAKVLQRRGEMGYPYIFYTDNANNGKPDVYKDKGHDIYASNLCTEIMLPSSDEWSFVCVLSSINVLHYDKWKNTDAVETMVCFLDAVLTEFIDKLEEYRDSDNRDHRQTFMFMERAYNFAKSNRALGLGVLGWHSLLQSKRHAFDSQEAYDLNSEIFREIKQRSYKASEELAEKFGEPETLKGYGRRNATLNAIAPTTSSAFILGQVSQGIEPIWSNVYVKDIAKIKTTIKNPFLEELFEEKGMNTPEVWRSVRDNDGSVQHLEFLTEQEKDVFKTYAEIDQMAIIYQAANRQNHIDQGQSINLLVHPDMPIKEINKIHITAWKLGLKSLYYQHSMNAAQKFKQKKECVSCEA
notes: NrdAi, catalytic subunit of the class I RNR of Leeuwenhoekiella blandensis sp. nov. strain MED217; amplified from genomic DNA with primers from the start codon to the stop codon; pET-nrdA with N-terminal hexahistidine tag and thrombin site; no cleavage is told for NrdA (theoretical monomer mass printed as 70.6 kDa); source: E. coli BL21(DE3), pET-28a(+), purified (HisTrap Ni Sepharose, gel …)
B3: Leeuwenhoekiella blandensis NrdBi (wild type NrdB, radical-generating subunit of class I ribonucleotide reductase) (enzyme, UniProt A3XHF9 1-427, looked up)
chain: MSSQEIKKIIKRDYSTAPFVLEKITNAIANAMAALGHGSEQDAKLISMQVYESLLNNKEQESEYIPTVEQVQDMVEDKLMSSEFHDVAKAYIIYRNKRALERKTNIFEKRINLKPYEYPELNEYVAAIRHSYWIHTEFNFTSDIQDFKTGLSEVERSAIKNTMLAISQIEVAVKTFWGDVHHRLPKPEIAAVGATFAESEVRHHDAYSHLLEILGLNEEFKELKKKPVIMKRVHYLETSLKHAKSDDDREYTESILLFALFIEHVSLFSQFLIIMAFNKHKNMLKGISNAVEATSKEEQIHGDFGVDIINIIKKENPEWFDEEHNNLIKEMCLNSFEAESKVVDWIFEKGELDFLPKAVINEFLKNRFNKSLEAIGLEKLFDIDEALLQETEWFDDEIIGTKHGDFFVKRSINYSKRTQSITSDDLF
notes: NrdBi, radical-generating subunit of the class I RNR of Leeuwenhoekiella blandensis sp. nov. strain MED217; GenBank EAQ51288; amplified from genomic DNA with primers from the start codon to the stop codon; ATP-cone 1-103, linker 104-106, core 107-398, C-terminus 399-427; pET-28a(+) construct with N-terminal hexahistidine tag and thrombin site; Oligomeric state depends on nucleotide: dimer with …

Assays:
[1] = target: the molecule itself; assay: crystal structure; NrdB 9.6 mg/ml with 20 mM MgCl2, 2 mM TCEP, 5 mM dATP; 0.2 M CaCl2, 0.1 M Tris pH 8.0, 20% PEG 600, 3% 6-aminohexanoic acid, 20°C; space group P1, one tetramer in the unit cell
[2] = target: B3; assay: SEC; with 3 mM ATP in sample and buffer; Superdex 200 PC 3.2/30 at 7°C; 50 mM Tris-HCl pH 8, 50 mM KCl, 10% glycerol, 10 mM magnesium acetate, 2 mM DTT; proteins 20 µM each; eluted fractions analysed by SDS PAGE; conditions: both partners purified
[3] = target: the molecule itself; assay: SEC; with 100 µM dATP; Superdex 200 10/300 GL at room temperature; 50 mM Tris-HCl pH 7.6, 150 mM KCl, 10 mM MgCl2; NrdB 10 µM, NrdA at rising concentrations
[4] = target: the molecule itself; assay: SEC; with ATP; Superdex 200 10/300 GL at room temperature; 50 mM Tris-HCl pH 7.6, 150 mM KCl, 10 mM MgCl2; NrdB 10 µM
[5] = target: the molecule itself; assay: GEMMA (gas-phase electrophoretic macromolecule analysis); with 50 µM dATP and equimolar magnesium acetate; 20 mM ammonium acetate pH 7.5, 0.005% Tween 20; NrdB 0.1 mg/ml (~2 µM) or NrdB∆99

B1
stoichiometry N [1]: 4

B2
stoichiometry N [2]: 1 | stoichiometry N [3]: 2

B3
stoichiometry N [4]: 2 | stoichiometry N [5]: 4
